Data set [1] concerns the target GlmS in solution (SEC-MALS) (Salmonella Typhimurium) (UniProt Q8ZKX1). Put plainly: SEC-MALS; Superdex 200 10/300 GL, 20 mM Tris-HCl pH 8.0, 300 mM NaCl, 2 mg protein injected, 0.5 ml/min; proteins alone or in combination.
Data set [2] deals with the molecule itself. Described as above.

Experimental findings from article PMC5024086, “Fine-tuning of amino sugar homeostasis by EIIA^Ntr in Salmonella Typhimurium” (Scientific Reports, 2016) are described below.

Turning to “EIIA^Ntr in solution (SEC-MALS) (natural protein)”, in data set [1], the stoichiometry N (EIIA^Ntr per GlmS chain (1:2)) amounted to 0.5.

B1: GlmS in solution (SEC-MALS) (enzyme, Salmonella Typhimurium, UniProt Q8ZKX1 1-609, looked up)
chain: MCGIVGAIAQRDVAEILLEGLRRLEYRGYDSAGLAVVDAEGHMTRLRRLGKVQMLAQAAEEHPLHGGTGIAHTRWATHGEPSEANAHPHVSEHIVVVHNGIIENHEPLREALKARGYTFVSETDTEVIAHLVNWELKQGGTLREAVLRAIPQLRGAYGTVIMDTRHPDTLLAARSGSPLVIGLGMGENFIASDQLALLPVTRRFIFLEEGDIAEITRRSVNIFDNTGAEVKRQDIESNLQYDAGDKGIYRHYMQKEIYEQPNAIKNTLTGRISHGQVDLSELGPNADELLSKVEHIQILACGTSYNSGMVSRYWFESLAGIPCDVEIASEFRYRKSAVRRNSLMITLSQSGETADTLAGLRLSKELGYLGSLAICNVPGSSLVRESDLALMTNAGTEIGVASTKAFTTQLTVLLMLVAKLSRLKGLDASIEHDIVHGLQALPSRIEQMLSQDKRIELLAEDFSDKHHALFLGRGDQYPIALEGALKLKEISYIHAEAYAAGELKHGPLALIDADMPVIVVAPNNELLEKLKSNIEEVRARGGQLYVFADQDAGFVSNDNMHIIEMPHVEEVIAPIFYTVPLQLLAYHVALIKGTDVDQPRNLAKSVTVE
notes: D-glucosamine-6-phosphate synthase (GlmS), Salmonella Typhimurium; 128 kDa dimer by SEC-MALS; it may be the same as m7; also called GlmS dimer
For the molecule B1, the “stoichiometry N” value in data set [2] is 2.
